Measurements taken from patent publication US20250115640A1, “NEUROPROTECTIVE POLYPEPTIDE COMPOUND AND APPLICATION THEREOF” (Innerse (Zhuhai) Pharmaceutical Co., Ltd., priority 2021, published 2025).
“And” between values parts separate entries of the source, which are not always exact repeats. Equal entries are not always repeated.

How the values were obtained:
Format in all cases: in vivo, Sprague-Dawley (SD) rats
[1] = system: MCAO ischemia-reperfusion model; assay: MCAO ischemia-reperfusion model, TTC staining, cerebral infarct area and inhibition rate (Example 6)
[2] = Body weight of MCAO model animals (Example 6); conditions: individual animal
Experimental: • Animals measured: all the surviving experimental animals planned to be measured; • Measurement time: the body weight was measured at least twice during the adaptation period, once 24 hours before surgery for grouping, and once 24 hours after surgery.
Cerebral ischemia-reperfusion is an acute injury model, wherein the weight of experimental animals will drop dramatically after MCAO modeling. Thus, the weight of experimental animals is one of the most basic sensitive parameters to comprehensively reflect the health status of animals. In this experiment, the body weight of all the animals was monitored on the day before the surgery and on the first day after the surgery, and the changes of animal's body weight were observed and recorded.

[3] = system: MCAO ischemia-reperfusion model; assay: MCAO ischemia-reperfusion model, rat Neurological Severity Scores (NSS) (Example 6)
Excerpt: 3) Cerebral ischemia reperfusion surgery: • A. Isolating and exposing blood vessels: the skin of the surgical area was shaved, and the rats were placed under a surgical microscope. The skin of the rat was cut along the midline with ophthalmic scissors, with a cut of about 2 cm length. Through the right neck of the rat, the muscle tissue of the right neck was bluntly isolated and opened with a microforcep to expose the right common carotid artery (CCA), and then isolated upward along the common carotid artery to further expose the external carotid artery (ECA) and internal carotid artery (ICA); • B. The proximal end of CCA was ligated and the CCA at the Y-shaped branch was temporarily clamped; the ligated site of CCA to the clamped site of ICA were threaded, tied with a loose knot (pre-ligation) for later use, and a small incision at the proximal end of the pre-ligation was made; • C. Inserting the suture emboli: Suture emboli No. 4-0 was inserted through the incision of CCA, pushed slowly and gently into the internal carotid artery, and stopped temporarily at the artery clamp of ICA. The pre-ligation thread was tied tightly (to avoid severe bleeding when pushing the suture emboli), then the artery clamp that blocked the blood flow of ICA was removed, and the suture emboli was immediately pushed into ICA until entering into the cranium. One should be careful not to insert the suture emboli into the pterygopalatine artery, which is another branch of the internal carotid artery and is one of the extra-cranial branches of ICA. […] Then the insertion was terminated and the time was recorded. […] Note: The first digit of the animal number represents the group (1, 2, 3 and 4 represent the model control group, S3 group, t-PA group and S3+t-PA group respectively), and the second letter represents the gender (M is male), the last three digits represent the animal serial number. a means giving 3 mL S3 and 3 mL sterile water for injection, b means giving 3 mL t-PA and 3 mL sterile water for injection, c means giving 3 mL S3 and 3 mL t-PA. • Route of administration: tail vein injection; • Administration time: immediately after ischemia-reperfusion (within 5 minutes); • Dosing frequency and cycle: 1 dose; • The day of modeling was defined as D0, and the day before was defined as D-1. • Measurement time: 24 hours before the modeling, 24 and 72 hours after the modeling; • Animals measured: all the surviving animals planned to be measured; • Measurement method: a motor function test, sensory test, balance test, and reflex and abnormal behavior test were performed on animals, according to the rat for details. […]

[4] = 3 mg/kg i.v. immediately after reperfusion, 24 h after surgery, group mean ± SD

B1: t-PA: recombinant human TNK tissue-type plasminogen activator for injection (Mingfule) purchased from Guangzhou Mingkang Bioengineering Co., Ltd. (protein, UniProt P00750 36-562, looked up, variant T103N N117Q K296A H297A R298A R299A)
Tissue-type plasminogen …: SYQVICRDEKTQMIYQQHQSWLRPVLRSNRVEYCWCNSGRAQCHSVPVKSCSEPRCFNGGTCQQALYFSDFVCQCPEGFAGKCCEIDTRATCYEDQGISYRGNWSTAESGAECTNWQSSALAQKPYSGRRPDAIRLGLGNHNYCRNPDRDSKPWCYVFKAGKYSSEFCSTPACSEGNSDCYFGNGSAYRGTHSLTESGASCLPWNSMILIGKVYTAQNPSAQALGLGKHNYCRNPDGDAKPWCHVLKNRRLTWEYCDVPSCSTCGLRQYSQPQFRIKGGLFADIASHPWQAAIFAAAAASPGERFLCGGILISSCWILSAAHCFQERFPPHHLTVILGRTYRVVPGEEEQKFEVEKYIVHKEFDDDTYDNDIALLQLKSDSSRCAQESSVVRTVCLPPADLQLPDWTECELSGYGKHEALSPFYSERLKEAHVRLYPSSRCTSQHLLNRTVTDNMLCAGDTRSGGPQANLHDACQGDSGGPLVCLNDGRMTLVGIISWGLGCGQKDVPGVYTKVTNYLDWIRDNMRP
modifications: tenecteplase (TNK-tPA), Mingfule
With B1 the “Infarct area, individual animals” value ([1]; 3 mg/kg i.v. immediately after reperfusion, 24 h after modeling, individual animal) was 19.069% and 18.394% and 16.546% and 21.064% and 19.195% and 18.719% and 16.209% and 18.356% and 19.147%, the Infarct area weight [1, 4] was 0.26 ± 0.022 g and the infarct area [1, 4] was 18.522±1.372%. The “Cerebral infarct inhibition rate” value ([1]; 3 mg/kg i.v. immediately after reperfusion, 24 h after surgery, vs model control, group mean ± SD) was 22.802±5.719%, the “Weight of infarct area, individual animals” value ([1]; 24 h after modeling, individual animal) was 0.291 g and 0.268 g and 0.229 g and 0.289 g and 0.272 g and 0.260 g and 0.230 g and 0.239 g and 0.265 g and the “Cerebral infarct inhibition rate, individual animals” value ([1]; vs model control group, individual animal) was 20.521% and 23.336% and 31.037% and 12.207% and 19.996% and 21.984% and 32.445% and 23.493% and 20.196%. The “Body weight D 2, individual animals” value ([2]; after surgery and administration) was 230.57 g and 203.58 g and 203.63 g and 199.35 g and 205.31 g and 223.28 g and 223.30 g and 217.60 g and 200.68 g, the “Body weight D 0, individual animals” value ([2]; before surgery (baseline)) was 289.15 g and 246.68 g and 263.91 g and 259.23 g and 273.31 g and 281.77 g and 281.59 g and 273.94 g and 251.02 g and the “NSS D2, individual animals” value ([3]; 3 mg/kg i.v. immediately after reperfusion, after surgery, individual animal) was 7 (2×) and 8 and 7.5 (2×) and 6.5 (2×) and 6 and 5.5. The “NSS D 2” value ([3]; 3 mg/kg i.v. immediately after reperfusion, one day after surgery, group mean ± SD) was 6.83±0.75, the NSS reduction rate ([3]; one day after surgery, relative to model control group, group mean ± SD) was 11.83±9.62% and the “NSS reduction rate, individual animals” value ([3]; relative to model control group, individual animal) was 9.68% (2×) and −3.23% and 3.23% (2×) and 16.13% (2×) and 22.58% and 29.03%.
